Data published in the supplement of paper PMC12042874.
± gives the uncertainty stated by the source.

Test: amyloid nucleation score (Sup35N fusion, yeast selection) (log enrichment); library NNK1; higher = more nucleation; inactive = no reads after selection
Outline: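 The nucleation score, computed with DiMSum, is the log enrichment of output over input reads, centred on the mode score of non-aggregating sequences. Sequences with under 100 input reads were dropped. Reads were generated by Illumina sequencing of plasmid inserts from psi-negative yeast with Sup35N fused to peptides of 20 random codons, induced with 100 μM copper sulfate for 24 hours and grown 7 days at 30°C on medium lacking adenine and uracil.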
For HLRKVGYSIYLFSR, the amyloid nucleation score was 3.83 ± 0.057.
Substance RGVARWRCGNKICNA has an amyloid nucleation score of 0.078 ± 0.47.
With IGYSGYY the amyloid nucleation score was -0.296 ± 0.41.
EFMYYL showed an amyloid nucleation score of -0.979 ± 1.9.
With LIENTGLHRENISRAPGGR the amyloid nucleation score was -0.469 ± 0.83.
For SGHRFCAVRSRATGERFYGW, the amyloid nucleation score was “inactive”.
With ILSDVDVCGYLRFMFWSMSD the amyloid nucleation score was 1.58 ± 0.49.
YIIWFPFSKLVLMRYHRSWG gave an amyloid nucleation score of -0.005 ± 0.22.
For ENKHVGICSGVQFVAFETCY, the amyloid nucleation score was “inactive”.
For VDRQFTDEFKVFTEGTKVDE, the amyloid nucleation score was -0.5 ± 1.4.
Work on PFSYLMDLTIYVGKSLQSNE yielded an amyloid nucleation score of 0.119 ± 0.35.
VGHPKVFWDGVGSRTILERS gave an amyloid nucleation score of 0.48 ± 0.74.
DGCSRFRREGAEVYQRMGIG showed an amyloid nucleation score of 1.04 ± 0.85.
For PLEMGSHIGRL, the amyloid nucleation score was -1.54 ± 2.7.
Work on LGPVLFKLLRETCAQSYKVM yielded an amyloid nucleation score of -0.005 ± 0.67.
Work on NSASYII yielded an amyloid nucleation score of -0.048 ± 0.24.
Work on FEGALRLTIRSQKD yielded an amyloid nucleation score of 0.574 ± 0.57.
For DSLVGVARDSMTSKQHNKNE, the amyloid nucleation score was -0.112 ± 0.69.
Work on TSYPSYVDFW yielded an amyloid nucleation score of 0.209 ± 0.58.
In the case of GHIDAQWPRFRCHMA, the amyloid nucleation score is reported as 0.147 ± 0.32.
Substance RRSSILVNTGYPDLGYVMGD has an amyloid nucleation score of -1.18 ± 1.3.
In the case of IPVWTYIVWAQESILQRGCW, the amyloid nucleation score is reported as 0.217 ± 0.46.
Work on STDLSYVSCAYVSTFLPNFR yielded an amyloid nucleation score of 2.2 ± 0.21.
Work on TNVYESSVSFVMMGS yielded an amyloid nucleation score of 0.364 ± 0.26.
YESCRVHVSIIYPPASGHRA gave an amyloid nucleation score of 2.9 ± 0.12.
Work on ESARCVRVTALSLWHRDQRS yielded an amyloid nucleation score of 1.02 ± 0.8.
For HLSLVNFCMSVSLESWYEWM, the amyloid nucleation score was 0.819 ± 0.44.
In the case of WSSPQEQT, the amyloid nucleation score is reported as -1.59 ± 1.5.
For VYRSHLRTNFSTFTSMSSVL, the amyloid nucleation score was -0.626 ± 1.4.
For EGSVGHRMVSWVFISYTLVL, the amyloid nucleation score was 0.006 ± 1.1.
SIRLREL gave an amyloid nucleation score of 1.61 ± 0.76.
With NLTHARGVSSVQRGVMSRTG the amyloid nucleation score was -0.747 ± 0.6.
YEALQ showed an amyloid nucleation score of -0.703 ± 1.
For NSCTGSGGCSWEDKGNWCVK, the amyloid nucleation score was 0.183 ± 0.28.
With SNPTYLWVVLLVRSAALRMD the amyloid nucleation score was “inactive”.
Work on FKRSLRCLYVVACNALYWDA yielded an amyloid nucleation score of -0.026 ± 0.51.
With YSAIRTKFFAA the amyloid nucleation score was 0.616 ± 1.1.
Substance QSYTLYMMSLFKS has an amyloid nucleation score of -0.34 ± 0.55.
For IGGFASLGYGYIRDVIRVTS, the amyloid nucleation score was 0.493 ± 0.45.
KEYNNPRLKLTMRRFAAKS showed an amyloid nucleation score of 0.539 ± 0.69.
With SDMFSLNYSFDERTFWKQTS the amyloid nucleation score was “inactive”.
For RKLDASHYMPVSDLEFCCMC, the amyloid nucleation score was 6.752 ± 0.048.
In the case of ICVCKDVCGLYRCLLGTGGS, the amyloid nucleation score is reported as 1.13 ± 0.57.
KRCFVLWLHRLWVGVNVFAD showed an amyloid nucleation score of 0.237 ± 0.25.
Substance QCDRILSDLYNCSGYNRNTK has an amyloid nucleation score of -0.522 ± 0.74.
With VVSDRRFYLLKFKSGVLSLV the amyloid nucleation score was -0.043 ± 0.31.
SNVMWFYSWMWVRVTRRTCL gave an amyloid nucleation score of 1.71 ± 0.49.
In the case of CRCMLSLLRIRLGVSSARLG, the amyloid nucleation score is reported as 0.143 ± 0.49.
Work on PQVKTFGVVFVGGMCE yielded an amyloid nucleation score of 0.216 ± 0.41.
MECSASYLYVWKIANTLGRM showed an amyloid nucleation score of 0.637 ± 0.31.
Substance KVCVLLSSCIYDNLHVR has an amyloid nucleation score of 0.402 ± 1.4.
With SQVGYGSRDLEFTWWCGGNG the amyloid nucleation score was -0.278 ± 0.58.
With DLVSVHHVNRLRCWSGCLCE the amyloid nucleation score was -0.532 ± 0.51.
Substance TMISLAFIIYPLNMAPMYME has an amyloid nucleation score of 1.97 ± 0.45.
Work on FLNRYICKFDKVSQHGVRLW yielded an amyloid nucleation score of 0.261 ± 0.84.
RNLLNFFKISDTSTALDLLY gave an amyloid nucleation score of -0.728 ± 0.52.
QVNVN showed an amyloid nucleation score of 0.19 ± 0.5.
PPQLHRVEFLIVSGR showed an amyloid nucleation score of -0.859 ± 1.4.
For MCASASTSKMLVWVWTPYFG, the amyloid nucleation score was 2.14 ± 0.13.
Work on QDQSGPVLASCIWYLCSETN yielded an amyloid nucleation score of 7.403 ± 0.052.
KWSVSV showed an amyloid nucleation score of -0.32 ± 1.3.
QYRHRGRQHLMGGNAQCPYV showed an amyloid nucleation score of 0.477 ± 0.66.
Work on DSQMYTMH yielded an amyloid nucleation score of -0.054 ± 0.71.
For SLRLFEFFWLTFGSSQIHLA, the amyloid nucleation score was -0.032 ± 0.5.
Work on VKFKGTTLCYIFDMDFMHGI yielded an amyloid nucleation score of 0.948 ± 0.14.
NRRCGGASSIRTGNRIWDDW showed an amyloid nucleation score of 2.22 ± 0.23.
In the case of NLCYHWVRNIQNGQRFLCQL, the amyloid nucleation score is reported as “inactive”.
In the case of DWRFSGALRLSLMHTYQ, the amyloid nucleation score is reported as 4.09 ± 0.072.
In the case of ASSVSMFFYIWFLDAHVGYL, the amyloid nucleation score is reported as 0.364 ± 0.33.
